Test results reported in patent US9670514B2, “Method for producing polysaccharide” (SANYO CHEMICAL INDUSTRIES, LTD., priority 2011, dated 2017).

B1: nucleoside diphosphate kinase aqueous solution (D4-1-2): nucleoside diphosphate kinase, SEQ ID NO: 8, derived from rat pancreas (protein)
chain: LSGIAVAFLLLLLCYHRSSGPRIQVANPHNWRMVHQVAGELYNDTYPLTPPLRTPEGLRYHIAIIADLDTDSRSAKANTWVSYLKRGYLTLSSSGDHVAVEWEKEDIVLETHLAEKGRGMELSELIVFNGKLYSVDDRTGVVYRIEGSKAVPWVILTDGDGTVGKGFKAEWLAVKDEQLYVGGLGKEWTTTSGVVLNENPEWVKVIGPRGDTQHHNWVSNYNQLRSAAGIQPPGYLIHESAAWSDSLKSWFFLPRRASQEQYSEKEDEKRGSNILLRATPDFSDIKMSHVGTLNPTHGFSSFKFIPGTDDQIIVALKSEEDNGKVATYITAFTLDGRILLPETKVGNVKYEGIEFI
modifications: Rat pancreas
B2: arginine kinase aqueous solution (D4-1-3): arginine kinase, SEQ ID NO: 9, derived from Toxoplasma gondii (protein, listed as Toxoplasma gondii)
chain: MLSAASPALARKSFDFRGSALRHFSSSGGHRGSSDTKISPGHSDKSGEPLDLPVFTSTKQIATIGPASWDYEEIERLFLAGVDVFRLNMSHGLLTEKHQQLLHVRHLEKVYKHPIAVLADLPGPKFRLGVFNNDEATLETGKSFILDSSTQPGDASRVQLPHPEILSVLRPDDIVLMDDGKVKLRVTEVFADTTALSRGLGDIESVSHTASPGSSVVRAPAVRCTVLVGGRISSKKGVNVPSARLPISALSARDRELARTVASWGVDWIALSFVQSADDVHELRRELREAAEAAGSTTAQYAAEQNRSESHVDRGDASGAGCRIRPDISVMVKIEKPIALENIAEIVAAADGIMVARGDLGVELPNIAWLPRVQKRLVSLCREAGKPVVVATQMLESMMQAPLPTRAEVSDVANAVYDGADAVMLSGETAAGNAPARVACMQRLGIEGVENDPSFWELEDQRRQARLRAAERCASTGTSALRVPRASKGREQELEKGSELQGESRDRTEEILSRFLPGRREHLAFSEADRQGNTSGDTNQGTSKTEQGADESDAWVEHTAAAVARQSGAKAIVVFGENEALLQRLATLRPTAPVLAVTECVHTARRLKMYWGIYPVLLEAEDQANVESRARRPASLDDQLRLACEFARKEKFATESTDNLVVLGRLPGGRENGTNSDKTTARLTRPILTVCTLESGR
modifications: aqueous solution
B3: nucleotidase aqueous solution (D3-1): nucleotidase, SEQ ID NO: 5, derived from Escherichia coli (protein, listed as Escherichia coli)
chain: MKQSHFFAHLSRLKLINRWPLMRNVRTENVSEHSLQVAMVAHALAAIKNRKFGGNVNAERIALLAMYHDASEVLTGDLPTPVKYFNSQIAQEYKAIEKIAQQKLVDMVPEELRDIFAPLIDEHAYSDEEKSLVKQADALCAYLKCLEELAAGNNEFLLAKTRLEATLEARRSQEMDYFMEIFVPSFHLSLDEISQDSPL
B4: ribonucleotide diphosphate reductase aqueous solution (D6-1): ribonucleotide diphosphate reductase, SEQ ID NO: 3, derived from Corynebacterium glutamicus (protein, listed as Corynebacterium glutamicum)
chain: MAADSDLSVHDAYLKEHVAPVKAINWNSIPDSKDLEVWDRLTGNFWLPEKVPVSNDIKSWGTLNEVEKAATMRVFTGLTLLDTIQGTVGAISLLPDADSLHEEAVLTNIAFMESVHAKSYSNIFMTLASTAEINDAFRWSEENENLQRKAKIILSYYEGDDPLKRKIASVILESFLFYSGFYLPMYWSSHSKLTNTADVIRLIIRDEAVHGYYIGYKYQKAVAKETPERQEELKEYTFDLLYDLYDNETQYSEDLYDDLGWTEDVKRFLRYIANKALNNLGYEGLFPADETKVSPNILSALSPNADENHDFFSGSGSSYVIGKAENTEDDDWDF
B5: apyrase aqueous solution (D2-1): apyrase, SEQ ID NO: 7, derived from xenopus (protein, listed as Xenopus laevis)
chain: MKSPQVECKESMSPLRISVAGLPVLASMTKTADPRFRPRWRAILLSGIAVAFLLLLLCYHRSSGPRIQVANPHNWRMVHQVAGELYNDTYPLTPPLRTPEGLRYHIAIIADLDTDSRSAKANTWVSYLKRGYLTLSSSGDHVAVEWEKEDIVLETHLAEKGRGMELSELIVFNGKLYSVDDRTGVVYRIEGSKAVPWVILTDGDGTVGKGFKAEWLAVKDEQLYVGGLGKEWTTTSGVVLNENPEWVKVIGPRGDTQHHNWVSNYNQLRSAAGIQPPGYLIHESAAWSDSLKSWFFLPRRASQEQYSEKEDEKRGSNILLRATPDFSDIKMSHVGTLNPTHGFSSFKFIPGTDDQIIVALKSEEDNGKVATYITAFTLDGRILLPETKVGNVKYEGIEFI

How the values were obtained:
[1] = Specific activity of ribonucleoside diphosphate conversion enzyme solutions (TLC, UV 260 nm); format: biochemical; details: 1 mM uridine diphosphate, 30° C., pH 7.0, with the co-substrate of each enzyme
Protocol: Reaction solution (2) was prepared by adding 10 μL of 1 M sucrose aqueous solution and 10 μL of sucrose synthase aqueous solution (D7-1) to 1 mL of aqueous solution R (50 mM phosphate buffer (pH of 7.0) containing 100 mM sodium chloride, 10 mM magnesium chloride, and 1 mM uridine diphosphate). Three such reaction solutions (2) were prepared and allowed to react at 30° C. for 5 minutes, 10 minutes, and 15 minutes, respectively. As for the amount of compound (C-7) as the reaction product (uridine diphosphate-glucose), the reaction product was developed on TLC (PEI-Cellulose plate available from Sigma-Aldrich Corporation, hereinafter the same) (developing solvent: an aqueous solution containing 1 M LiCl and 1 M formic acid, hereinafter the same), and detected with a UV light (260 nm). The specific activity of sucrose synthase aqueous solution (D7-1) was calculated to be 0.3 U/μL from the relationship between the yield of compound (C-7) and the reaction time.
Reaction solution (3) was prepared by adding 0.1 mg of reduced thioredoxin and 10 μL of ribonucleotide diphosphate reductase aqueous solution (D6-1) to 1 mL of aqueous solution R. Three such reaction solutions (3) were prepared and allowed to react at 30° C. for 5 minutes, 10 minutes, and 15 minutes, respectively. As for the amount of compound (C-6) as the reaction product (deoxyuridine diphosphate), the reaction product was developed on TLC and detected with a UV light (260 nm). The specific activity of ribonucleotide diphosphate reductase aqueous solution (D6-1) was calculated to be 0.3 U/μL from the relationship between the yield of compound (C-6) and the reaction time.
Reaction solution (4) was prepared by adding 10 μL of 1 M monopotassium phosphoenolpyruvate aqueous solution (available from Wako Pure Chemical Industries, Ltd.) and 10 μL of pyruvate kinase aqueous solution (D4-1-1) to 1 mL of aqueous solution R. Three such reaction solutions (4) were prepared and allowed to react at 30° C. for 5 minutes, 10 minutes, and 15 minutes, respectively. For the amount of compound (C-4) as the reaction product (uridine triphosphate), the reaction product was developed on TLC and detected with a UV light (260 nm). The specific activity of pyruvate kinase aqueous solution (D4-1-1) was calculated to be 0.3 U/μL from the relationship between the yield of compound (C-4) and the reaction time.
Reaction solution (5) was prepared by adding 10 μL of nucleotidase aqueous solution (D3-1) to 1 mL of aqueous solution R. Three such reaction solutions (5) were prepared and allowed to react at 30° C. for 5 minutes, 10 minutes, and 15 minutes, respectively. For the amount of compound (C-3) as the reaction product (uridine monophosphate), the reaction product was developed on TLC and detected with a UV light (260 nm). The specific activity of nucleotidase aqueous solution (D3-1) was calculated to be 0.3 U/μL from the relationship between the yield of compound (C-3) and the reaction time.
Reaction solution (6) was prepared by adding 1 mg of polyuridine (product name “polyuridylic acid potassium salt” available from Sigma-Aldrich Corporation) and 10 μL of polyribonucleotide nucleotidyltransferase aqueous solution (D5-1) to 1 mL of aqueous solution R. Three such reaction solutions (6) were prepared and allowed to react at 30° C. for 5 minutes, 10 minutes, and 15 minutes, respectively. […]

[2] = Enzyme activity ratio (Y1)=Vmax1/Vmax2 of conversion enzyme (Lineweaver-Burk); format: biochemical; details: each
Source text: In the present invention, in the case where ribonucleoside diphosphate conversion enzyme (D) is used, an enzyme activity ratio (Y1) calculated from the following formula (1) using enzyme activity Vmax1 and enzyme activity Vmax2 described below is preferably not lower than 0.1 in terms of efficient polysaccharide production and efficient use of the substrate (ribonucleoside diphosphate-monosaccharide (A)). Enzyme activity ratio (Y1)=Vmax1/Vmax2 (1) • Enzyme activity Vmax1: the enzyme activity of ribonucleoside diphosphate conversion enzyme (D) on ribonucleoside diphosphate. • Enzyme activity Vmax2: the enzyme activity of ribonucleoside diphosphate conversion enzyme (D) on ribonucleoside diphosphate-monosaccharide (A).
An enzyme reaction solution (II) containing specific amounts of substrate (ribonucleoside diphosphate or uridine diphosphate-monosaccharide (A)), enzyme (polysaccharide synthase (B) or ribonucleoside diphosphate conversion enzyme (D)), pH adjuster (K), and water is prepared, which is adjusted to a specific temperature and a specific pH. • Phosphate-containing compound (F) is added, if necessary, to the enzyme reaction solution (II) if the enzyme to be used is (D4). Reducing agent (d6) is added if the enzyme is (D6), and raw material (d7) of nucleotide sugar is added if the enzyme is (D7).
After preparation of the enzyme reaction solution (II), it is allowed to stand for enzyme reaction for 1 minute to 100 hours. Next, the amount (X) of the reaction product obtained from the reaction is measured to determine the initial enzyme reaction velocity v. Likewise, the initial enzyme reaction velocity v is determined, using the enzyme reaction solution (II) having a different substrate concentration. A Lineweaver-Burk plot is generated from the above-obtained initial enzyme reaction velocity v and substrate concentration, and the enzyme activity Vmax is determined therefrom.
The enzyme activity Vmax (M/s) is determined using Lineweaver-Burk plot derived from Michaelis-Menten kinetics. […]
In the above measurement, the result determined using ribonucleoside diphosphate conversion enzyme (D) as an enzyme and ribonucleoside diphosphate as a substrate represents Vmax1, and the result determined using ribonucleoside diphosphate conversion enzyme (D) as an enzyme and ribonucleoside diphosphate-monosaccharide (A) as a substrate represents Vmax2. In the case where two or more types of ribonucleoside diphosphate-monosaccharide (A) are used, Vmax2 is determined for each ribonucleoside diphosphate-monosaccharide (A). The enzyme activity ratio (Y1) is also determined for each type from formula (1) using each Vmax2. […]
Enzyme reaction solution (II-1) was prepared by adding the following to 1 mL of aqueous solution P (50 mM phosphate buffer (pH of 7.0) containing 100 mM sodium chloride and 10 mM magnesium chloride): a substrate (uridine diphosphate) to a concentration of 0.5 mM in the solution, sucrose (available from Wako Pure Chemical Industries, Ltd.) to a concentration of 100 mM in the solution, and 1 μL of sucrose synthase aqueous solution (D7-1). […] Enzyme reaction solution (II-1) was allowed to stand at 30° C. for enzyme reaction for 30 minutes while measuring the amount of the reaction product (uridine diphosphate-glucose) using HPLC at 5-minute intervals, and the initial enzyme reaction velocity v was calculated. […]

[3] = Vmax2 substrates UDP-glucuronic acid, -N-acetylglucosamine, -N-acetylgalactosamine, -glucose, -mannose, -glucosamine
[4] = Vmax2 substrates uridine diphosphate-glucuronic acid and uridine diphosphate-N-acetylglucosamine

Molecule | specific activity [1] | enzyme activity ratio (Y1) of each type [2, 3] | enzyme activity ratio (Y1) of each type [2, 4]
B1 | 0.3 U/μL | ≥ 10 | –
B2 | 0.3 U/μL | ≥ 10 | –
B3 | 0.3 U/μL | – | ≥ 10
B4 | 0.3 U/μL | – | ≥ 10
B5 | 0.3 U/μL | – | ≥ 10
